The values below are quoted from earlier work in paper PMC7143314.

The term Kd denotes the equilibrium constant for the complex coming apart.

The target in this data set is RAF RBD (Homo sapiens) (UniProt P04049).

Turning to RAS (from UniProt P01116), the Kd was 20 nM.
